Data on 6 molecules can be found in patent US20200216514A1, “Generalized Extracellular Molecule Sensor” (ETH ZURICH, priority 2019, published 2020).

Numbering of substitutions follows the chain as printed. Names and notes keep the numbering of the source.

The subject of data set [1] is JAK/STAT signaling through STAT3. As to the kind of experiment: C-STAR caffeine-inducible STAT3 SEAP reporter assay in HEK-293T cells. It counts as cell-based, human. The note with it: 1 μM concentration; C-STARDB1 cells; FIG. 22. The protocol: All cells were cultured in a humidified atmosphere containing 5% CO2 at 37° C.
On the technique in general: Reporter assays use an easily measured gene product as a stand-in for the process of interest.

The conditions of data set [2]: cited from earlier work.
The next data set concerns WEN1.3 cells. As to the kind of experiment: Endogenous IL-10 secretion (ELISA) in WEN1.3 hybridoma cells. It counts as cell-based. Particulars: for Fold change (IL-10 concentration in supernatant): 0 ng vs. 100 ng RR120/mL, 24 h. The method, then: WEN1.3 cells (See Pogson M et al., Nat. Commun., 2016, 7:12535) were cultivated in DMEM (52100039, Thermo Fisher) supplemented with 10% (v/v) heat-inactivated FBS (F7524, lot BCBS0318V, Sigma-Aldrich), 1% (v/v) streptomycin/penicillin (L0022, Biowest), 10 mM HEPES buffer (Ser. No. 15/630,056, Thermo Fisher), and […] 2-mercaptoethanol (M3148, Sigma-Aldrich) in a humidified atmosphere of 5% CO2 in air at 37° C. Cells were transfected by electroporation with program CQ-104 of the 4D-Nucleofector System (Lonza) and the SF Cell Line 4D-Nucleofector X Kit L (V4XC-2024, Lonza).
For each transfection 1×10^6 cells were washed twice by centrifugation for 5 min at 90 g and then resuspended in 1 mL of Opti-MEM I Reduced Serum Medium (31985062, Thermo Fisher); after washing, the cells were resuspended in 100 μL Lonza SF buffer containing 0.5 μg sleeping beauty transposase expression plasmid (pCMV(CAT)T7-SB100) and 9.5 μg of a plasmid for stable integration and expression of JAK/STAT-GEMS (pLeo695) or MAPK-GEMS (pLeo694). After pulsing, 500 μL prewarmed culture medium was added for 10 min. Cells were transferred to 1 mL culture media in 24-well plates (142475, Thermo Fisher) and were grown for 48 h. For creating stable cell lines, cells were transferred to 3 mL culture media in 6-well plates (140675, Thermo Fisher) and were selected with 5 μg/mL puromycin (ANT-PR-1, InvivoGen) for 14 d. For experiments, cells were centrifuged for 5 min at 90 g and resuspended in culture media (with or without RR120) to give a concentration of 1×10^6 cells/mL, and then 500 μL of the cell suspension was transferred per well of a 48-well plate. IL-10 ELISAs (900-TM53, PeproTech) were performed 24 h after induction.
(ELISA stands for enzyme-linked immunosorbent assay.)

Data set [3] has as its target SunTag8×-mCherry fusion protein. As to the kind of experiment: cell-based or functional assay.
The subject of data set [4] is JAK/STAT signaling (STAT3 reporter). The data set can be described thus: GEMS STAT3-responsive SEAP reporter assay in HEK-293T cells. It counts as cell-based, human. Particulars: for Fold change (SEAP reporter): 24 h induction; for Response to erythropoietin: FIG. 5B, with / without F93A modification of EpoR. The method, then: (§1) Human embryonic kidney cells (HEK-293T, American Type Culture Collection (ATCC): CRL-11268) were cultivated in Dulbecco's modified Eagle's medium (DMEM; 52100039, Thermo Fisher) supplemented with 10% (v/v) FBS (F7524, lot BCBS0318V, Sigma-Aldrich) and 1% (v/v) streptomycin/penicillin (L0022, Biowest) in a humidified atmosphere of 5% CO2 in air at 37° C. For experiments, 1.5×10^6 cells in 12 mL DMEM were seeded into 96-well plates (167008, Thermo Fisher) 24 h before transfection. The transfection mix in each well consisted of 125-130 ng of plasmid DNA mixed with 50 μL FBS and antibiotics-free DMEM and 600 ng of polyethyleneimine (24765-1, Polysciences, Inc.). The transfection mix was prepared separately, incubated for 20 min and then added to the cells for overnight transfection. In the morning, medium with the transfection mix was exchanged for 130 μL/well medium with different concentrations of the appropriate inducer or no inducer as a negative control. Reporter output was measured 24 h after induction for all experiments. Plasmid amounts used for transfections per set of six wells of a 96-well plate were as follows:
FIG. 3B; FIG. 4B: 5 ng for each receptor subunit or as indicated in the figure, 150 ng STAT3 reporter plasmid (pLS13), 25 ng STAT3 expression vector (pLS15) and […] (or the appropriate amount to make a total of 775 ng) of a plasmid without mammalian promoter (pDF145).
FIGS. 5A-C; FIG. 6A; FIG. 8; FIG. 9; FIGS. 10A-B; FIGS. 11A-C; FIG. 12; FIGS. 13A-B: 600 ng of receptor plasmids (for heterodimeric receptors 300 ng of each subunit) and for STAT readout 150 ng of a STAT3 reporter plasmid (pLS13) and 25 ng of a STAT3 expression vector (pLS15); for MAPK-readout 75 ng of a TetR reporter plasmid (pMF111) and 100 ng of a TetR-Elk1 fusion expression vector (MKp37); for NFAT readout 175 ng of a NFAT reporter plasmid (pHY30) and for NF-κB readout 175 ng of a NF-κB reporter plasmid (pKR32).
SEAP concentrations in cell culture supernatants were quantified in terms of absorbance increase due to hydrolysis of para-nitrophenyl phosphate (pNPP). 80 μL of heat-inactivated (30 min at 65° C., then centrifuged for 1 min, 3,220 g) supernatant was mixed in a 96-well dish with 100 μL of 2×SEAP buffer (20 mM homoarginine, 1 mM MgCl2, 21% (v/v) diethanolamine, pH 9.8) and 20 μL of substrate solution containing 20 mM pNPP (Acros Organics BVBA). Samples were measured at 405 nm with a Tecan Genios PRO multiplate reader (Tecan AG) or an EnVision 2104 multilabel reader (PerkinElmer). SEAP production in vivo was quantified with the chemiluminescence SEAP reporter gene assay (cat. no. 11779842001, Sigma-Aldrich) according to the manufacturer's instructions.

Data set [5] deals with NFAT, STAT3 and MAPK signaling. As to the kind of experiment: GEMS pathway crosstalk reporters (FIG. 13A-B) in HEK-293T cells. In kind it is cell-based, human. The protocol:
as §1, with “In the morning, medium with the transfection mix was exchanged for 130 μL/well medium with different concentrations of the appropriate inducer or no inducer as a negative control.” left out, “Plasmid amounts used for transfections per set of six wells of a 96-well plate were as follows:” left out
FIGS. 5A-C; FIG. 6A; FIG. 8; FIG. 9; FIGS. 10A-B; FIGS. 11A-C; FIG. 12; FIGS. 13A-B: 600 ng of receptor plasmids (for heterodimeric receptors 300 ng of each subunit) and for STAT readout 150 ng of a STAT3 reporter plasmid (pLS13) and 25 ng of a STAT3 expression vector (pLS15); for MAPK-readout 75 ng of a TetR reporter plasmid (pMF111) and 100 ng of a TetR-Elk1 fusion expression vector (MKp37); for NFAT readout 175 ng of a NFAT reporter plasmid (pHY30) and for NF-κB readout 175 ng of a NF-κB reporter plasmid (pKR32). […]

Consider `Cn1c(=O)c2[nH]cnc2n(C)c1=O` [theophylline], for which the “Cross-activation of C-STAR by caffeine analogs” value in data set [1] is given as “modest cross-activation”.
For the molecule `Cn1c(=O)c2c(ncn2C)n(C)c1=O` [caffeine], in data set [2], the “Half-life of caffeine in human blood” value is “approximately five”.
On to `O=S(=O)(O)c1cc(Nc2nc(Cl)nc(Nc3ccc(Nc4nc(Cl)nc(Nc5cc(S(=O)(=O)O)cc6cc(S(=O)(=O)O)c(N=Nc7ccccc7S(=O)(=O)O)c(O)c56)n4)cc3)n2)c2c(O)c(N=Nc3ccccc3S(=O)(=O)O)c(S(=O)(=O)O)cc2c1` [RR120, reactive red 120, reference compound], for which, in the data set with WEN1.3 cells (WT WEN1.3 cells (no receptor)), the “Fold change (IL-10 concentration in supernatant)” value was found to be 1.1 fold.

B1: JAK/STAT-GEMSSunTag (pLeo620; scFvαGCN4-EpoRm-IL-6RBm) (receptor, part only; not given: Signal peptide and scFv-EpoR linker, part only)
chain, part: DIVMTQSPSSLSASVGDRVTITCRSSTGAVTTSNYASWVQEKPGKLFKGLIGGTNNRAPGVPSRFSGSLIGDKATLTISSLQPEDFATYFCALWYSNHWVFGQGTKVELKRGGGGSGGGGSGGGGSSGGGSEVKLLESGGGLVQPGGSLKLSCAVSGFSLTDYGVNWVRQAPGRGLEWIGVIWGDGITDYNSALKDRFIISKDNGKNTVYLQMSKVRSDDTALYYCVTGLFDYWGQGTLVTVSAPSPSLPDPKFESKAALLASRGSEELLCFTQRLEDLVCFWEEAASSGMDFNYSFSYQLEGESRKSCSLHQAPTVRGSVRFWCSLPTADTSSAVPLELQVTEASGSPRYHRIIHINEVVLLDAPAGLLARRAEEGSHVVLRWLPPPGAPMTTHIRYEVDVSAGNRAGGTQRVEVLEGRTECVLSNLRGGTRYTFAVRARMAEPSFSGFWSAWSEPASLLTASDLDPLILTLSLILVLISLLLTVLALLSAAANKRDLIKKHIWPNVPDPSKSHIAQWSPHTPPRHNFNSKDQMYSDGNFTDVSVVEIEANDKKPFPEDLKSLDLFKKEKINTEGHSSGIGGSSCMSSSRPSISSSDENESSQNTSSTVQASTVVHSGYRHQVPSVQVFSRSESTQPLLDSEERPEDLQLVDHVDGGDGILPRQQYFKQNCSQHESSPDISHFERSKQVSSVNEEDFVRLKQQISDHISQSCGSGQMKMFQEVSAADAFGPGTEGQVERFETVGMEAATDEGMPKSYLPQTVRQGGYMPQ
B1: in data set [3], the Fold change of MAPK reporter (NanoLuc), 0% vs. 0.002 % (v/v) bacterial lysate (SunTag), cells co-transfected with MAPK-GEMSRR120 (Y677F), FIG. 13C came to 1.3 fold; the Fold change of SEAP, 0 % vs. 0.002 % (v/v) bacterial lysate (SunTag), FIG. 10A was determined as 6.9 fold; the Fold change of SEAP, 0 % vs. 0.02 % (v/v) bacterial lysate (SunTag), FIG. 10A was determined as 30 fold; the Fold change of STAT3 reporter (SEAP), 0% vs. 0.002 % (v/v) bacterial lysate (SunTag), cells co-transfected with MAPK-GEMSRR120 (Y677F), FIG. 13C amounted to 12.9 fold. Also, the Fold change of STAT3 reporter (SEAP), no inducer vs. 100 ng RR120/mL + 0.002 % (v/v) bacterial lysate (SunTag), cells co-transfected with MAPK-GEMSRR120 (Y677F), FIG. 13C in data set [3] turned out to be 14.9 fold.

B2: JAK/STAT-GEMSRR120: PSV40-VHHA52-EpoRm-IL-6RBm-pA; optimized chimeric receptor (GEMS device) targeting RR120, JAK/STAT signaling (protein)
chain: VQLQESGGGLVQAGDSLKLSCEASGDSIGTYVIGWFRQAPGKERIYLATIGRNLVGPSDFYTRYADSVKGRFAVSRDNAKNTVNLQMNSLKPEDTAVYYCAAKTTTWGGNDPNNWNYWGQGTQVTVSGEFAPSPSLPDPKFESKAALLASRGSEELLCFTQRLEDLVCFWEEAASSGMDFNYSFSYQLEGESRKSCSLHQAPTVRGSVRFWCSLPTADTSSAVPLELQVTEASGSPRYHRIIHINEVVLLDAPAGLLARRAEEGSHVVLRWLPPPGAPMTTHIRYEVDVSAGNRAGGTQRVEVLEGRTECVLSNLRGGTRYTFAVRARMAEPSFSGFWSAWSEPASLLTASDLDPLILTLSLILVLISLLLTVLALLSAAANKRDLIKKHIWPNVPDPSKSHIAQWSPHTPPRHNFNSKDQMYSDGNFTDVSVVEIEANDKKPFPEDLKSLDLFKKEKINTEGHSSGIGGSSCMSSSRPSISSSDENESSQNTSSTVQASTVVHSGYRHQVPSVQVFSRSESTQPLLDSEERPEDLQLVDHVDGGDGILPRQQYFKQNCSQHESSPDISHFERSKQVSSVNEEDFVRLKQQISDHISQSCGSGQMKMFQEVSAADAFGPGTEGQVERFETVGMEAATDEGMPKSYLPQTVRQGGYMPQ
Regarding B2, the “Fold change (SEAP reporter)” value in data set [4] (0 ng vs. 1 ng RR120/mL) was determined as 5.4 fold; in data set [4] (0 ng vs. 100 ng RR120/mL), 45 fold. For the same molecule, the Response to erythropoietin entry in data set [4] is reported as “induced with RR120 but not with erythropoietin”. In addition, the “Ratio of induced versus noninduced SEAP secretion (signal-to-noise ratio)” value in data set [4] (RR120 as inducer, FIG. 5C) was “over 40 fold”. Moreover, the “IL-10 secretion upon GEMS activation by RR120” value with WEN1.3 cells (FIG. 14) is on record as “substantially increased IL-10 secretion”. For the same molecule, in the data set on WEN1.3 cells (stable polyclonal WEN1.3 cell line expressing the receptor), the “Fold change (IL-10 concentration in supernatant)” value was 1.5 fold. For the same molecule, the “Crosstalk to other signaling pathways” value in data set [5] is recorded as “cancelled the interference with MAPK signaling”.

B3: pLeo618: PSV40-VHHA52-EpoR3A-IL-6RBm-pA; receptor with Y759A, without F93A modification (protein)
chain: B2 chain with A222F
For the molecule B3, the Response to erythropoietin result in data set [4] was “respond strongly to erythropoietin”.
